{
  "source": "paper PMC7069927",
  "about": "“Amyloid formation of bovine insulin is retarded in moderately acidic pH and by addition of short-chain alcohols” (European Biophysics Journal, 2020)",
  "key": {"bovine insulin": {"molecular_target": "T1, bovine insulin (Bos taurus, UniProt P01317)", "T1 construct": "51 amino acid residues, distributed over two polypeptide chains (A and B) that are interconnected by disulphide bridges; purchased Sigma-Aldrich I5500", "T1 sequence (P01317 25-54 limits assumed)": "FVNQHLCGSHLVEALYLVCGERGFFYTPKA", "T1 sequence (P01317 85-105 limits assumed)": "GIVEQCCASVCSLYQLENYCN", "experiment": "Effect of short-chain alcohols on insulin fibrillation kinetics (ThT) at pH 4.0", "details": "ammonium acetate buffer pH 4.0, ThT, 60 °C; for retardation of insulin fibril formation (half-time) at the most effective alcohol:buffer mixing ratio: quiescent, triplicate, alcohol range 0-50% v/v; for alcohol concentration of maximal retarding effect: volume fraction", "procedure": "(§1) Aggregation kinetics was monitored by ThT fluorescence in a Fluostar Omega or Fluostar Optima fluorescence plate reader (BMG Labtech, Ortenberg, Germany) at 60 °C without shaking. Samples were deposited in 100 μl triplicate in black half-area 96-well microtiter plates with transparent bottoms (Corning #3881), and the plates were sealed with plastic film (Bio-Rad Laboratories, Hercules, CA, U.S.) to avoid sample evaporation. ThT fluorescence emission was detected using bottom optics, a 440 ± 10 nm band pass excitation filter, and a 485 ± 12 nm band pass emission filter. The ThT concentration was 7.2 μM in all experiments.\nTo mimic conditions relevant to industrial purification of insulin, we investigated the effect of three short-chain alcohols (methanol, ethanol and isopropanol) on insulin aggregation in ammonium acetate buffer. We monitored ThT kinetics as function of increasing concentration (range: 0–50% v/v) of each alcohol (Fig. 5a–c). […] Methanol is apparently a weaker modulator (it retards fibril formation by ~ 2 times); higher concentrations (40%) are also needed to reach maximal effect."}, "[1]": {"details": "centrifuged 13,400 rpm 15 min, absorption 280 nm", "procedure": "The solubility of insulin as function of pH was estimated by preparing insulin solutions with varying pH at a concentration of 1 mg/ml. The solutions were centrifuged at 13,400 rpm in an Eppendorf Minispin tabletop centrifuge (Eppendorf, Hamburg, Germany) for 15 min to pellet non-dissolved insulin. The solubility was estimated by measuring the insulin concentration in the supernatant by absorption (see above). The same strategy was used to determine fibril formation yields at different pH values, using pre-formed fibrils as starting material."}, "[2]": {"experiment": "Thioflavin-T kinetic assay of insulin amyloid formation", "assay_type": "physicochemical, bovine", "details": "64 μM insulin, 60 °C, quiescent; for half-time of amyloid formation: ThT 7.2 μM", "procedure": "as §1\nWe set up thioflavin-T kinetic assays to monitor the aggregation of bovine insulin in microtitre plates at 60 °C and under quiescent conditions, initially at pH 2.2 to establish a reproducible method, then extending to pH 7.0 to reflect native conditions. The resulting kinetic curves (presented as normalized ThT fluorescence) are presented in Fig. 1a, b; each condition was analysed in triplicate and all curves are shown. The aggregation rate of bovine insulin increases with increase in monomer concentration at pH 2.2 (Fig. 1a), which is intuitively expected and also consistent with many previous studies (see for example Brange and Langkjoer [1993]; Nielsen et al. [2001]). […] The scaling component, i.e. the slope of the fitted straight line to the half-time data, for insulin aggregation kinetics at pH 2.2 is − 1.02, which is consistent with a nucleation-dependent aggregation mechanism (Meisl et al. [2016]). […] This is, from an amyloid formation point of view, an anomalous behaviour that can be explained by that insulin, in addition to existing as a monomer, populates higher-order oligomeric states that are resilient to amyloid formation; or interfere with fibril elongation (Ziaunys et al. [2018]). These higher-order states can be significant, or even predominant, at pH 7.0 despite that no stabilizing zinc was added (Ziaunys et al. [2018]; Waugh et al. [1953]; Goldman and Carpenter, [1974])."}, "[3]": {"details": "ref Wintersteiner and Abramson [1933]; cited from earlier work"}, "[4]": {"experiment": "Fibril formation yield (centrifugation to sediment amyloid fibrils)", "assay_type": "physicochemical, bovine", "procedure": "The fibril yields for the reactions shown in Fig. 1 were estimated by centrifugation experiments to sediment amyloid fibrils formed at a starting concentration of 58 μM insulin. […] We also used centrifugation to sediment insoluble insulin in 1 mg/ml solutions to investigate the solubility across a range of buffers with different pH values (Fig. 1d)."}, "[5]": {"experiment": "AFM imaging of the end point of the fibrillation reaction", "assay_type": "physicochemical, bovine", "details": "aggregated in ammonium acetate pH 4.0 in presence of 30% (vol/vol) EtOH; on mica", "procedure": "For atomic force microscopy, fibrillar insulin was deposited on freshly cleaved mica and left to settle for 5 min, after which the mica plates were rinsed with milli-Q water and dried under a gentle stream of nitrogen. AFM images were recorded on an NTEGRA Prima setup (NT-MDT, Moscow, Russian Federation) equipped with a gold-coated single crystal silicon cantilever (NSG-01, spring constant ~ 5.1 N/m, resonance frequency of ~ 150 kHz). The images were processed in the Gwyddion software package (Nečas and Klapetek [2012]) using planar subtraction, polynomial background subtraction and correction for linear aberrations. For fluorescence microscopy, 150 µl of insulin solution was placed on positively charged glass (Thermo Scientific, Waltham, MA, USA) and sealed with a 18 × 18 mm coverslip. A Zeiss AxioObserver.Z1 inverted fluorescence microscope (Carl Zeiss AG, Oberkochen, Germany) with a 100 × oil immersion objective (NA = 1.46) was used in combination with a Photometrics Evolve EMCCD camera (Photometrics, Tuscon, AZ, USA), 100 ms exposure time, to obtain the images of the samples.\nThis is probably due to ThT’s fluorescence being sensitive both to ThT binding affinity and to the quantum yield of each bound dye molecule (Lindberg et al.[2015], [2017]). […]"}},
  "note": "Read-outs that look alike come from different tables or passages of the source.",
  "data": [
    {"compound": "CC(C)O", "note": "[isopropanol]", "values": [
      {"measurement": "retardation of insulin fibril formation (half-time) at the most effective alcohol:buffer mixing ratio", "setting": "bovine insulin", "result": "three to four"},
      {"measurement": "alcohol concentration of maximal retarding effect", "setting": "bovine insulin", "result": "30–35%"}
    ]},
    {"compound": "CCO", "note": "[Ethanol, ethanol]", "values": [
      {"measurement": "retardation of insulin fibril formation (half-time) at the most effective alcohol:buffer mixing ratio", "setting": "bovine insulin", "result": "three to four"},
      {"measurement": "alcohol concentration of maximal retarding effect", "setting": "bovine insulin", "result": "30–35%"}
    ]},
    {"compound": "CO", "note": "[Methanol, methanol]", "values": [
      {"measurement": "retardation of insulin fibril formation (half-time) at the most effective alcohol:buffer mixing ratio", "setting": "bovine insulin", "result": "~ 2 times"},
      {"measurement": "alcohol concentration of maximal retarding effect", "setting": "bovine insulin", "result": 40, "unit": "%"}
    ]},
    {"compound": "Bovine insulin", "values": [
      {"measurement": "insulin solubility", "setting": "[1]; across most of the assayed pH range except pH 5.0-6.0, 1 mg/ml (172 μM), pre-dissolved in 100 mM HCl", "result": "high"},
      {"measurement": "insulin solubility", "setting": "[1]; pH 4.0, 1 mg/ml", "result": "solubility remains high"},
      {"measurement": "insulin solubility", "setting": "[1]; pH 5.0-6.0, close to pI, 1 mg/ml", "result": "low solubility"},
      {"measurement": "half-time of amyloid formation", "setting": "[2]; ammonium acetate buffer (200 mM) pH 4.0, printed 'ammonium phosphate', triplicate", "result": "7.7 ± 0.8", "unit": "h"},
      {"measurement": "half-time of amyloid formation", "setting": "[2]; citrate-phosphate buffer pH 4.0, triplicate", "result": "6.5 ± 0.1", "unit": "h"},
      {"measurement": "slowing of amyloid formation kinetics as measured by half-time of fibril formation", "setting": "[2]; pH 4.0 compared with pH 3.0 or pH 7.0, citrate-phosphate buffer, ThT, triplicate", "result": "~ 50%"},
      {"measurement": "amyloid formation", "setting": "[2]; pH 5.0-6.0, citrate-phosphate buffer, ThT, no reliable half-times within assayed time range", "result": "strongly inhibited"},
      {"measurement": "isoelectric point (pI)", "setting": "[3]", "result": 5.3},
      {"measurement": "fibril yield", "setting": "[4]; pH 2.2, starting concentration 58 μM insulin, absorption of supernatant", "result": "91 ± 8", "unit": "%"},
      {"measurement": "fibril yield", "setting": "[4]; pH 4.0, absorption of supernatant", "result": "> 99.5", "unit": "%"},
      {"measurement": "fibril yield", "setting": "[4]; pH 7.0, starting concentration 58 μM insulin, absorption of supernatant, n = 3", "result": "90 ± 5", "unit": "%"},
      {"measurement": "size of oligomeric particles at end point of fibrillation (AFM)", "setting": "[5]", "result": "2–3 nm"}
    ]}
  ]
}
